Test results published in the DeepSol protein solubility set.

assay: soluble on expression in E. coli; label from the status in PepcDB or PDB records

Sequence | soluble on expression in E. coli
MVTVPEGYEANVIYALGDSINPRVGDWDDNNIPSGPSFQFRSGDCHDGMHYFGLNTSTNRFDETVSAQGLLVMNHEYINQTFLHPKGPTKVDGRRPEDEVIRETNAHGVSVVHIKKDPTTQKVEIVKNSIFNRRITASTVMEFAGAAAGSSLLATRFSPAGRQTRGTHNNCGNGYTPWGTYLTTEENFIGYFQRSGSDEYARTDAEKIALKRYGLGVKKDEPYLYEKDEKGAPKKDKDGKIIYLKDKNGELIPNVDEQGRQIYLGTSSRYGWETAIGQVESQDLYDRWNADVKAAQATQDYRNGPNTFGWMVEIDPFDGRQNPVKRTSLGRFAHEDSACRAVVGQPLAFYMGDDSRGEYIYKFVSTAVWDTKDINGGYTAGDKYMNAGKLYVAKFNNDGSGQWIELAYGKNGLNESNTTYPFKSQADVVTFARLAADSVGATKMDRPEWCTVNPVNGEIYVTLTNNSNRGKDYATDAANPRNYTDLYAGTKEQKGNVNGHIIRFKETDDKTTAETFKWDIYLFGAEASMASNINLSGLTDNNDFSSPDGMWFDPRGVLWIETDDGAYTDVTNCMMLAALPGQIGDGGTLEHHHHHH | soluble
MLIFGVIMVTIIVLFHPILTNQRDTIVTSTFKEIASDACYYINLGVKVEDYEHEPLNNLVGNVKCNFLGISVDSTTGEIRVTLKFEVNGNAQDFASGIIEYIKRRITEIRGFTITDKGEIFYRDSKITIEILTLEHHHHHH | not soluble
MCRMFLCHGNFGEDAGRLFLALSETAKNDPLLVKAGSTWTSHSDGWGMAMLSDGSIRFEKHSRPVYEDSVPTIISSGTVLAHARKASPGEPLGNAFSHPFYAEDERYIVLLAHNGSLDKHRIANCDPKCYDRNTDSGLFLSYIMTFPGTVKERFERAIFESLKNGVFGKLTNLLVVALDKFTMIEERLYFSHNASRSEYGDLYLVNGRGWTGVFSSSILMSAHFPAYVSKSKVENDTVMDLP | not soluble
MSLDRVDRDILRILHAKGRLPVVELAKLVNLTTSPCSERVKRLEKEGYIRGYHADLDPGKLGLDVQVFIHIRLDQSSFSIFERFAHAVADIPEIEACYSLSGDFDTMIKVRVKDMKAYQAFMSGKLGSLPGVIQTRSEFVIEEHKTSFGINPELIYSLPS | not soluble
MKEIIARHKAGEHLGICSVCSAHPLVIESALLFDLNTDNKVLIEATSNQVNQFGGYTGMKPADFRDFVYGIAQEVGFPRERLILGGDHLGPNCWQNEPAAAAMEKSVELIKAYVAAGFSKIHLDASMSCADDPTPLDPMVVARRAAVLCKAAEGTANEEQKCHLTYVIGTEVPVPGGEASTIGSVHVTREVDAARTLETHQIAFRESGLEEALSRVIAIVVQPGVEFDHTQIIHYQPQAAQALSAWIKETPMVYEAHSTDYQTRQAYRALVRDHYAILKVGPALTFALREAIFALAQMENELISPEQRSRVLEVIDEVMLNEPGYWKKYYRPTWSQAMVDIHFSLSDRIRYYWPHPRIRQSVEKLIANLNNVTLPLGLISQFMPVQFERLSEGVLTPTPHNLIIDKIQDVLRAYRFGCTPDVA | not soluble
MLFTVTAPKEVYTVDVGSSVSLECDFDRRECTELEGIRASLQKVENDTSLQSERATLLEEQLPLGKALFHIPSVQVRDSGQYRCLVICGAAWDYKYLTVKVKASYMRIDTRILEVPGTGEVQLTCQARGYPLAEVSWQNVSVPANTSHIRTPEGLYQVTSVLRLKPQPSRNFSCMFWNAHMKELTSAIIDPLSRMEPKVPRT | soluble
MEERTLVILGATGSIGTQTLDVLKKVKGIRLIGISFHSNLELAFKIVKEFNVKNVAITGDVEFEDSSINVWKGSHSIEEMLEALKPDITMVAVSGFSGLRAVLASLEHSKRVCLANKESLVCGGFLVKKKLKEKGTELIPVDSEHSAIFQVMEPEVEKVVLTASGGALRDWKISKIDRARPEDVLKHPVWNMGARITVDSATMVNKAFEVLEAMELFELPFEKIEVKIHREGLVHGAVVLPDGNVKMVVSPPDMRIPISYALFYPRRVALEPFFLRTISLSFEDPDPEKYPAFFLLKEIKDSYALRTAFNAADEVAVEAFLKGRIRFGGIHRVIEKTLEEFQGYPQPRTLDDVERIHFEAIKKAERVTEWLSSTSY | soluble
MLQYRIIVDGRVQGVGFRYFVQMEADKRKLAGWVKNRDDGRVEILAEGPENALQSFVEAVKNGSPFSKVTDISVTESRSLEGHHRFSIVYS | soluble
MLARCLAFSYPASTFLIFFLRRRLSHHLWHPTYPRVLNSVRPAFRLAPFVSQKDTDMTVEQPIQVDTLVVGAGQAGVAMSEHLSKLGVPHLVLERSRVAEAWRTGRWDSLVANGPAWHDRFPGMEFDVAADAFPAKDQVADYFEAYARKFNAPIRTGVEVRKVLRNVGRPGFTVETSEGLIQAQRVVAATGPFQRPVIPPIATANDRLTQIHSAEYRNPQQLPEGAVLVVGAGSSGVQIADELQRAGRRVYLSVGAHDRPPRSYRNRDFCWWLGVLGEWDAEIAKPGREHVTIAVSGARGGQTIDFRALAHQGITLVGLTKAFAGEHVTFQADLLDNLARGDENYLALLDAADAYIARNGLDLPLEPEARRRLPDPDCVKQPILELDLQQAGITSIIWATGYAVDFSWLQVDTFSEQGKPLHQRGVSREPGVYFLGLPWLSRRGSSFIWGVWHDAKHVADHIATQRKYQAYSDARPPAATAEAPALNLSPVGAHLEHHHHHH | not soluble
AHHHHHHGSVERSKVRVLIAKPGLDGHDRGAKVVARALRDAGYEVIYTGIRQTPEQIVEAVIEEDVDVLGISILSGAHMVLIPKILKLLEEKGIKPGEDILVVAGGIIPPDDAEELKKMGVAEVFGPGTPLKTIIEFIDKNVEKLKKFRSST | soluble
MSAEVTLHDNIHYDLSADCQHCFGLCCVALPYAKSADFAFDKDGGTPCRNLQSNYQCSIHKDLREKGFRGCSAYECFGAGQKVSQITYEGKDWRNSPETANQMFDVFPIMQQLHEMLWYLHEALSIDIAKPIHSELRTTFEKIERLTRLSKERLLTLQVDEHRAEVNEWLLKTSELVRAQARHPKLPKKVSRGSVLIGAKLKGLDLRGANLRGALLIAADLRNADLRMTDFIGADMRDADLSGADLTGSIFLTQAQVNAANGDSNTKLPLSVRTPAHWKLEHHHHHH | not soluble
MKLAVIAANGQAGKAIVEEAVKRGHEVTAIVRSENKSQAESIIKKDLFELTKDDLTGFDAVISAFGAYTPDTLPLHSKSIELFNQLLAGTQTRFLVVGGAGSLYIDETKTTRLLDTPDFPEEFKPLAKAQADELDLLRTKNNLNWTFVSPAVDFIPDGEKTGNYILAGEIFTTNEKGISQISYADYAIGLVDELEKGHHIKERISLLEKLEHHHHHH | soluble
MITAEKKKKNKFLPNFDKQSIYSLRFDEMQNWLVEQGQQKFRAKQIFEWLYQKRVDSIDEMTNLSKDLRQLLKDNFTVTTLTTVVKQESKDGTIKFLYELQDGYTIETVLMRHDYGNSVCVTTQVGCRIGCTFCASTLGGLKRNLEAGEIVSQVLTVQKALDATEERVSQIVIMGIGEPFENYDEMMDFLRIVNDDNSLNIGARHITVSTSGIIPRIYDFADEDIQINFAVSLHAAKDEVRSRLMPINRAYNVEKLIEAIQYYQEKTNRRVTFEYGLFGGVNDQLEHARELAHLIKGLNCHVNLIPVNHVPERNYVKTAKNDIFKFEKELKRLGINATIRREQGSDIDAACGQLRAKERQVETRLEHHHHHH | not soluble
MGSDKIHHHHHHMKAANLAPCLMAMLLCTACEQLPIARKAPPPPPPATTAAKPAEQPRPTPIAAHDISLAGTCRRTEDDGFREDAVMRVVSNDVKSLKWKLWVSKRGTCQFDLADFKQVQKTPHIVLEATDGTQCKLLIWQDPRRVTLAHANCQQRCTPGIYEQAWPVLFNPRNGDCAEIR | not soluble
MQKKEKEGRRKLKYDSNDGLLPEIRRVCGFPHHISEELSARGSGKKKKQVEEEWKWPEAQICGICSSGGNILCCEQCPASFHLACIGYESSDLPDDNFYCNRCRNLPENVRLFPPEKCSPSVNPVLRVENENHRNWEAIEYHCNRLRDEEQAEKMKKDVAYGPKSEFAEIQDCFRDKNLLKALGMANPMDYTIPPEFQADRDCFSGDAMEDKRPTIMGEVCAECNLKDDWTRMLKCDFCDLIWHQKCVTPPLIHVRAYFYWMCPRHPETVIDSVLIGDEISREDRRRLYDKYADVEPSYEIFEEFCIKTEQFRMKSEVFDSEEMYYDPEEASTSFMQTVIKPRQTSRKTTGRSASKKKSNGRFFASSWDFPGLSSRETSPSRKNSRKSPDSVATERKDRVLDKIDKKRSIKLTEEEIIMSIMPVEESSRAEYLTQKMLGTDIEQSTNFFNRHSAMIDRIRAFYGNLPEKELIKLMREDLDPVETIRGGGTQSIISQNEKPYRKKLKADVEVLIQHVGLGTDSTERHFNSIGTEAFYRRCAPPVTARNVLNQKTLREVVLNSQKEAHEGAGVYEYHAEPEQLENLVLLAYEPSFESPEDRDTYFVPSMTIWSKEPICALTRKWAASGASKQAPPSSSSSEAPSVEAEVKEEVVEEEDEENEARMRRESTATSSIVYNNDTGPLEFIEENMPPPAATITEKSDPFDFSSLEMPEIHEKAETVYEAEGYYGESDDLPLDLRRTKSESDLVDRIIWPLVRSALQNFIRREDCHQMHLEHNYSSLYQTHDSDEENQPVVEVEKLITYEEYQENLYSAEFASPQTPPPIPPPPAVYYDNFSDAPRKRGRPVGSRNRKEGDTTIPKQQRKRNPQPVGRGRGRGGGRPRGSRSSRGSMDDGGGSRRHSTASDANESAELLNQPVTKQLRDEIKEIKLKYTKMMMDRGFEQAKDEYFRNRDAALSKWTPEQWKEHNEQCVAARLSSLIPYDQRYFLPTQRVLARLDLEDGDLRLPAVHLPIAIQRCVTKLGTAHDCHVRCDKLTGDAWCSVLADYHCDIVRDYYSDNFYISTLGTEAVFVDGRAVRRPRLTPFEAAEKLRTRGSSTIIPPHIKCRCQKHSDLQISRQESTGELVRCGILKLEHGARIQIGCVAFIFSRI | not soluble
AIAADTVDGKKEEADYKRLHNFPLIRHTDMPEEMRVETMELCVTACEKFATNNESAAKMIKESMDKKFGSSWHVVIGEGFGFEITHEVKNLLYMFFGGSLAVCVWKCS | soluble
MNELQFQQAAGISAGLSARWFPHIDAAMSEFGITAPLDQAMFIAQTGHESAGFTVLRESFNYSVEALKKTFGKRLTPYQCEMLGRIDGRQVAHQPQIANLVYGGRMGNKDAGDGWKYRGRGLIQITGLENYTRCGVALKLDLVANPGQLELERHAARSAAWFFVTKGCLKYSGDLVRVTQIINGGQNGFGDRRERFEKAKSVLV | not soluble
MYRRLASGLYQTSQRRIAQVQPKSVFVPETIVTTLPNGFRVATENTGGSTATIGVFIDAGSRYENEKNNGTAHFLEHMAFKGTPRRTRMGLELEVENIGAHLNAYTSRESTTYYAKCFTEKLDQSVDILSDILLNSSLATKDIEAERGVIIREMEEVAQNFQEVVFDILHADVFKGNPLSYTILGPIELIQTINKNDLQGYINTHYRSGRMVLAAAGGVNHDAIVKMAEKYFGELKHGDSSTEFVPATYSPCEVRGDIPDLPMLYGAMVVEGVSWTHEDNLALMVANTLMGEYDRMRGFGVNAPTRLAEKLSQDAGIEVFQSFNTCYKETGLVGTYFVAAPESIDNLIDSVLQQWVWLANNIDEAAVDRAKRSLHTNLLLMLDGSTPVCEDIGRQLLCYGRRIPTPELHARIESITVQQLRDVCRRVFLEGQVSAAVVGKTQYWPVNEEIHGRLIRMQ | not soluble
MKLLLHICCGPCAVYPVNVLREEGIYFEGLFYNPNIHPYDEFIRRKENVKKLSEIKNVPVKYMDDFSQEIWEKLGEDNEKRCNMCYALRIDKVAGYAKENGFDAFTTTLLVSPYQKHELIVELSKRAGEKYGIEFFYKDFRPGFRQGQQEAKELGLYRQKYCGCIISYREAEKLKSERKSK | soluble
